Molecular target: the molecule itself
Assay: SEC-MALS

B1: Gemin5 TPR-like domain (residues 807-1097) (domain or fragment)
chain: TPVSSGFEKSKVTINNKVILLKKEPPKEKPETLIKKRKARSLLPLSTSLDHRSKEELHQDCLVLATAKHSRELNEDVSADVEERFHLGLFTDRATLYRMIDIEGKGHLENGHPELFHQLMLWKGDLKGVLQTAAERGELTDNLVAMAPAAGYHVWLWAVEAFAKQLCFQDQYVKAASHLLSIHKVYEAVELLKSNHFYREAIAIAKARLRPEDPVLKDLYLSWGTVLERDGHYAVAAKCYLGATCAYDAAKVLAKKGDAASLRTAAELAAIVGEDELSASLALRCAQELLL
stoichiometry N: 2

Source: article doi:10.1101/654111 (bioRxiv, 2019)
